# Values quoted from earlier work in patent EP0997151B1, “Method for administering insulinotropic peptides” (priority 1998, dated 2006).
# Conditions: pulmonary delivery; calculated, background
substance,measurement,value
parathyroid hormone (1-34),Absorption values for proteins delivered through the lungs,fifteen
